Measured values: patent US20030050434A1

Target: polyclonal rabbit antiserum raised against synthetic rat preptin conjugated to ovalbumin
Assay: competitive radioimmunoassay, [125I]preptin tracer, antiserum 1:10,000, PEG-assisted second antibody separation

Question: DVSTSQAVLPDDFPRYPVGKFFKFDTWRQSAGRL [synthetic rat preptin] was tested. Which EC20 did it give?
Answer: The EC20 was 0.344 nM.

Question: And the EC80?
Answer: The EC80 was 0.039 nM.

Question: And the minimum detectable concentration?
Answer: The minimum detectable concentration was 11.2 pM.
